Source: article PMC9016638 (bioRxiv, 2022)
No end group written: not given here. *: point of attachment. Biotin = O=C1N[C@H]2[C@H](CS[C@H]2CCCCC(=O)*)N1

Legend:
Test in all cases: […]
SARS-CoV-2 S2 peptide 43 = molecular target: T1, SARS-CoV-2 S2 peptide 43 (SARS-CoV-2 Wuhan-Hu-1, UniProt P0DTC2)
T1 chain: Biotin-PSKRSFIEDLLFNKV

SARS-CoV-2 S2 peptide 42 = molecular target: T2, SARS-CoV-2 S2 peptide 42 (SARS-CoV-2 Wuhan-Hu-1, UniProt P0DTC2)
T2 chain: Biotin-PSKPSKRSFIEDLLF

SARS-CoV-2 S2 peptide 44 = molecular target: T3, SARS-CoV-2 S2 peptide 44 (SARS-CoV-2 Wuhan-Hu-1, UniProt P0DTC2)
T3 chain: Biotin-RSFIEDLLFNKVTLA

Measured: binding result

B1: COV44-62 (antibody, V domains shown)
VH: QMQLMQSGAEVKKPGASVTVSCKASGDTFSDYRIHWVRQAPGQGLEWMGRMNPKSGDTNFAQKFQGRVTMTRDMSINTAYMTLSGLTFDDTALYYCASLLIVGGFDPLDDFEVWGQGTMVTISS
VL: QSALTQPPSASGSPGQSVTISCSGTSSDVGGYNFVSWYQHHPGKAPKILIYEVTKRPSGVPDRFSGSKSGNTASLTVSGLQAEDEADYYCSSYGGTNNLLFGGGTKLTVL
binds: all assays above

B2: COV44-79 (antibody, V domains shown)
VH: QVQLVESGGGVVQPGRSLRLSCAASGLTFSGYAMHWVRQAPGKGLEWVAVISRDARNKYYADSVKGRFTISRDNSKKTVYLEMNSLRVEDTAVYYCAILIIPGITEPGSPDALDIWGQGTMVSVSS
VL: DIQMTQSPSSMSASVGDRVTITCRASQDISKWLAWYQQRPGKAPKLLIYAASSLQSGVPSRFSGSGSGTDFTLTISSLQPEDFATYYCQQASSFPWSITFGQGTRLEIR
binds: all assays above
